Nine molecules from patent US20090170069, “Cell free methods for detecting protein-ligand binding” (The Arizona Board of Regents on behalf of the University of …, published 2009) can be followed below.

Data set [1] concerns the target Aart-NFluc (six-finger zinc finger Aart) (synthetic). In words: competition; competes with E2C-1-Aart in split-luciferase assay with CFluc-E2C; IC50 only in figure; reference hairpin. The conditions noted are these: tags: N-terminal His tag, C-terminal NFluc(2-416) split luciferase fragment.
For data set [2] the target is unchanged. In words: competition; single A to T bp substitution in finger 3 triplet. The conditions noted are these: tags: N-terminal His tag, C-terminal NFluc(2-416) split luciferase fragment; hairpin.
Data set [3] deals with CFluc-E2C (six-finger zinc finger E2C) (synthetic). In words: with Pum2-Aart hairpin-guide and 1 nM target ssRNA or ssDNA; G to T target mutation gives background. Conditions: tags: N-terminal CFluc(398-550) split luciferase fragment; hairpin with ssDNA guide tail.
For data set [4], the target named is Aart-NFluc (six-finger zinc finger Aart) (synthetic). Put plainly: with VEGF60-78-E2C hairpin-guide and 1 nM VEGF transcript. The conditions noted are these: tags: N-terminal His tag, C-terminal NFluc(2-416) split luciferase fragment; hairpin with ssDNA guide tail.
Data set [5] has the same target. In words: with Pum1-E2C hairpin-guide and 1 nM target ssRNA or ssDNA; G to T target mutation gives background. The conditions noted are these: tags: N-terminal His tag, C-terminal NFluc(2-416) split luciferase fragment; hairpin with ssDNA guide tail.
Data set [6] has the same target. Put plainly: with E2C-HER2 100-118 hairpin-guide and 1 nM HER2 transcript. Conditions: tags: N-terminal His tag, C-terminal NFluc(2-416) split luciferase fragment; hairpin with ssDNA guide tail.
The target in data set [7] is CFluc-E2C (six-finger zinc finger E2C) (synthetic). In words: with HER2 122-140-Aart hairpin-guide and 1 nM HER2 transcript. The conditions noted are these: tags: N-terminal CFluc(398-550) split luciferase fragment; hairpin with ssDNA guide tail.
Data set [8] has the same target. Put plainly: with VEGF81-99-Aart hairpin-guide and 1 nM VEGF transcript. The conditions noted are these: tags: N-terminal CFluc(398-550) split luciferase fragment; hairpin with ssDNA guide tail.

Sequence of Aart-NFluc (six-finger zinc finger Aart) (synthetic) (chain, as listed by the source): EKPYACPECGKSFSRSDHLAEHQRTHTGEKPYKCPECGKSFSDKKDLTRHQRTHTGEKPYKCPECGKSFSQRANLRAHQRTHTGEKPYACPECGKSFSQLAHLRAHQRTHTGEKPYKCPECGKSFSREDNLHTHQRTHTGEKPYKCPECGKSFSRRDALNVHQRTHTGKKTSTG
Sequence of CFluc-E2C (six-finger zinc finger E2C) (synthetic) (chain, as listed by the source): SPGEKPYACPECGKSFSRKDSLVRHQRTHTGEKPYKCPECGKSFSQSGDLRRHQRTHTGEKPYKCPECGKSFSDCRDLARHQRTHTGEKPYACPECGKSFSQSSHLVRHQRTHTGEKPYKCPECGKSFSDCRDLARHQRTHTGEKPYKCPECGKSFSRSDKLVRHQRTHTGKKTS

As to GCATGTAGGGAAAAGCCCGGCGTCCTCGCCGGGCTTTTCCCTACATGC (dsDNA) [Aart competitor hairpin, consensus], in data set [1], the binding result was “binds”. Turning to GCATGTAGGGAATAGCCCGGCGTCCTCGCCGGGCTATTCCCTACATGC (dsDNA) [Aart competitor hairpin, consensus ATA], the binding signal in data set [2] is 60 fold reduced vs consensus hairpin.

B1: Pum1-E2C hairpin-guide (dsDNA)
DNA: GAGGGGCCGGAGCCGCAGTGCGTCCTCGCACTGCGGCTCCGGCCCCTCAAAACTATATACACCATG
With B1, the activity in data set [3] was 4.5 fold luminescence over background.

B2: VEGF81-99-Aart hairpin-guide (dsDNA)
DNA: GATCTCATCAGGGTACTCCAAAACTCCGGGCTTTTCCCTACATGCTCCTGCATGTAGGGAAAAGCCCGGAG
In data set [4], B2 returned an activity of 39 fold luminescence.

B3: Pum2-Aart hairpin-guide (dsDNA)
DNA: GCCGCTATATCAAAAAACTCCGGGCTTTTCCCTACATGCTCCTGCATGTAGGGAAAAGCCCGGAG
As for B3, in data set [5], the activity is 4.5 fold luminescence over background.

B4: HER2 122-140-Aart hairpin-guide (dsDNA)
DNA: CCCTTGCAGCGGGCACAGCAAAACTCCGGGCTTTTCCCTACATGCTCCTGCATGTAGGGAAAAGCCCGGAG
For B4, the activity in data set [6] was 4.3 fold luminescence over hairpin-guides alone.

B5: E2C-HER2 100-118 hairpin-guide (dsDNA)
DNA: GAGGGGCCGGAGCCGCAGTGCGTCCTCGCACTGCGGCTCCGGCCCCTCAAAACGGCACAGACAGTGCGCGT
With B5, in data set [7], the activity was 4.3 fold luminescence over hairpin-guides alone. For GCATGTAGAGAATAACCAGGCGTCCTCGCCTGGTTATTCTCTACATGC (dsDNA) [Aart competitor hairpin, designed ATA], in data set [2], the binding signal was 20 fold reduced vs designed hairpin.

B6: VEGF60-78-E2C hairpin-guide (dsDNA)
DNA: GAGGGGCCGGAGCCGCAGTGCGTCCTCGCACTGCGGCTCCGGCCCCTCAAAAGAAGATGTCCACCAGGGTC
In data set [8], B6 had an activity of 39 fold luminescence.
